T1: cynomolgus 5T4 on transfected CHO cells (Macaca mulatta (cynomolgus), UniProt F7CT46 35-420)
T1 construct: also called cyno5T4; cy5T4
T1 sequence: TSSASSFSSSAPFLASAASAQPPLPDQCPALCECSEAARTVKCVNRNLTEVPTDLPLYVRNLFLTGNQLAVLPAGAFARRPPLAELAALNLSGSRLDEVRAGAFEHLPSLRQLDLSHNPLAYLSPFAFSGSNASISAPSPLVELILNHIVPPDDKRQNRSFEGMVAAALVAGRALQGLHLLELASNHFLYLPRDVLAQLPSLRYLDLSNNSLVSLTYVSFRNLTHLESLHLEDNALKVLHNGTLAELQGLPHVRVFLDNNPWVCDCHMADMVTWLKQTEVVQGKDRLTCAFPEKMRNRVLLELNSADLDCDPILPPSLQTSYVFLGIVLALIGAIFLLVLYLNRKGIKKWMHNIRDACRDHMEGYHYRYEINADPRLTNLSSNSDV

T2: human 5T4 on transfected cells (human, UniProt Q13641 32-420)
T2 construct: whole, on cells; also called B16-5T4; CHOh5T4
T2 sequence (looked up): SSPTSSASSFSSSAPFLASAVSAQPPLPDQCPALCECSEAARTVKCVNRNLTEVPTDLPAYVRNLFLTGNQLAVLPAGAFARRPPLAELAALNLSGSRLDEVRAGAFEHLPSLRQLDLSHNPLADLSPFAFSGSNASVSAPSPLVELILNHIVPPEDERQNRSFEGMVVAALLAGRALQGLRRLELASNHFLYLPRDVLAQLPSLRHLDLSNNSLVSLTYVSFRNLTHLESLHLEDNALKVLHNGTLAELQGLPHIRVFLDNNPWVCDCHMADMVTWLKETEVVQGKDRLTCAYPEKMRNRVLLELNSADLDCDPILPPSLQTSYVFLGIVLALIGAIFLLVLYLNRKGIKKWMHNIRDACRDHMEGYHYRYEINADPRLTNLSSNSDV

T3: 5T4 (SPR antigen) (UniProt Q13641 32-355, limits assumed, biotinylated on the MASS-1 platform)
T3 construct: also called biotinylated 5T4
T3 sequence (looked up): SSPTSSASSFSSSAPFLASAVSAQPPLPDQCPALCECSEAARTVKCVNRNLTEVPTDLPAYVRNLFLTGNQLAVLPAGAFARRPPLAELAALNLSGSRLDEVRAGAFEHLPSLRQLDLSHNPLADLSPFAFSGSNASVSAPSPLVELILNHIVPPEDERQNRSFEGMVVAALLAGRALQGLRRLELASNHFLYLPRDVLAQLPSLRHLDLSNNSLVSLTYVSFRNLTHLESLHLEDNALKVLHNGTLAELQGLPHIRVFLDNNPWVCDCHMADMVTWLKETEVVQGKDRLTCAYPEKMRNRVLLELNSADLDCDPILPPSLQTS


Tests used:
[1] = target: T1, cynomolgus 5T4 on transfected CHO cells; test: flow cytometry, 5T4-transfected CHO cells
Experimental: The potency of 5T4 antibodies in binding to cynomolgus 5T4 was determined by flow cytometry. CHO cells were stably transfected with […] (cynomolgus) 5T4. […] Samples were analysed either on a FACSCalibur or a FACSverse (BD Biosciences, Heidelberg, Germany) and mean fluorescence intensity (MFI) determined. […] To compare the EC50 values between human and cynomolgus 5T4, the cy5T4/hu5T4 ratio was calculated from the experiment with the full dose-response.

[2] = target: T2, human 5T4 on transfected cells; test: flow cytometry, human 5T4-transfected CHO cells
Experimental: Analysis of 5T4 mAb binding with flow cytometry was performed using 5T4-transfected cell lines and as negative control, mock transfected cells. Three different transfected cell lines used were used for this study; B16, A9 and CHO, transfected either with a 5T4 construct or with an empty vector control construct. Cells were stained with 5T4 antibodies diluted in FACS buffer (PBS, 0.5% BSA and 0.02% NaN₃). […] Samples were analysed either on a FACSCalibur or a FACSverse (BD Biosciences, Heidelberg, Germany) and mean fluorescence intensity (MFI) determined.
In a new attempt to calculate EC50 with flow cytometry a 5T4 mAb dose response experiment was performed using CHO cells stably transfected with human 5T4.

[3] = target: T4, human/mouse 5T4 chimera E1; test: flow cytometry, cells with human/mouse 5T4 chimera
T4 construct: on transfected CHO cells
Experimental: (§1) Epitope mapping was performed by investigation of loss of binding by the antibodies using a panel of human/mouse chimeric 5T4 constructs by flow cytometry. […] Two strategies were used for the epitope mapping as illustrated in FIG. 5. In one approach, seven human/mouse 5T4 chimeras were constructed based on dividing 5T4 into seven different domains (FIG. 5). By replacing each domain with the corresponding mouse sequence seven human/mouse 7 5T4 human/mouse chimeras were generated. The chimeras were generated using the human protein 5T4 sequence NP_006661.1 (reference mRNA sequence NM_006670.4) and the corresponding mouse sequence NP_035757.2 (reference mRNA sequence NM_011627.4). The human/mouse chimeric DNA constructs, as well as human and mouse wild-type 5T4, were cloned into pcDNA3.1 expression vectors. […] As controls human 5T4 and mouse 5T4-transfected cells were used. For flow cytometric analysis, cells were stained with different 5T4 antibodies diluted in FACS buffer (PBS, 0.5% BSA). […] Samples were analysed by FACSverse (BD Biosciences, Heidelberg, Germany) and % positive cells were determined. To compensate for variations in % 5T4 positive cells in the various transfected populations, binding levels were normalized within each chimera by dividing % positive cells for each clone with % positive cells for the clones resulting in the highest % positive cells (% pos cellscloneX/% positive cellsₘₐₓ). A normalized value ≤0.75 was defined as mAb binding being dependent on the replaced region, whereas a normalized value ≤0.25 was defined as complete dependence.

[4] = target: T5, human/mouse 5T4 chimera E2; test: flow cytometry, cells with human/mouse 5T4 chimera
T5 construct: on transfected CHO cells
Experimental: as §1

[5] = target: T6, human/mouse 5T4 chimera E3; test: flow cytometry, cells with human/mouse 5T4 chimera
T6 construct: on transfected CHO cells
Experimental: as §1

[6] = target: T7, human/mouse 5T4 chimera E4; test: flow cytometry, cells with human/mouse 5T4 chimera
T7 construct: on transfected CHO cells
Experimental: as §1

[7] = target: T8, human/mouse 5T4 chimera E5; test: flow cytometry, cells with human/mouse 5T4 chimera
T8 construct: on transfected CHO cells
Experimental: as §1

[8] = target: T9, human/mouse 5T4 chimera E6; test: flow cytometry, cells with human/mouse 5T4 chimera
T9 construct: on transfected CHO cells
Experimental: as §1

[9] = target: T10, human/mouse 5T4 chimera E7; test: flow cytometry, cells with human/mouse 5T4 chimera
T10 construct: on transfected CHO cells
Experimental: as §1

5T4 (SPR antigen) = target: T3, 5T4 (SPR antigen); test: SPR MASS-1, biotinylated antigen on streptavidin chip, parental mAb

Binder | Ratio EC50cyno5T4/h5T4 [1] | EC50 [2] | normalized % positive cells [3] | normalized % positive cells [4] | normalized % positive cells [5] | normalized % positive cells [6] | normalized % positive cells [7] | normalized % positive cells [8] | normalized % positive cells [9] | Kd (5T4 (SPR antigen))
1210/1211 (antibody, V domains shown) VH: not shown VL: DIQMTQSPSSLSASVGDRVTITCRASQSISSYLNWYQQKPGKAPKLLIYAASSLQSGVPSRFSGSGSGTDFTLTISSLQPEDFATYYCQQTYGYLHTFGQGTKLEIK | 0.9 | 0.81 nM | 0.99 | 0.02 | 0.9 | 0.69 | 0.89 | 0.89 | 0.96 | 0.437 nM
1206/1207 (antibody, V domains shown) VH: EVQLLESGGGLVQPGGSLRLSCAASGFTFSGSSMSWVRQAPGKGLEWVSSIYYSGSGTYYADSVKGRFTISRDNSKNTLYLQMNSLRAEDTAVYYCARYGRNVHPYNLDYWGQGTLVTVSS VL: DIQMTQSPSSLSASVGDRVTITCRASQSISSYLNWYQQKPGKAPKLLIYAASSLQSGVPSRFSGSGSGTDFTLTISSLQPEDFATYYCQQGYYYLPTFGQGTKLEIK | 3 | 0.51 nM | 0.96 | 0.74 | 0.25 | 0.52 | 0.9 | 0.94 | 0.94 | 

Reference: US20190169308A1 (ALLIGATOR BIOSCIENCE, published 2019)
